T1: human FcγRIIA-Arg131 α subunit extracellular domain-His6-GST fusion (human, UniProt P12318 34-217)
T1 construct: extracellular domain; also called FcγRIIA-R131; not shown: glutathione S transferase (GST)
T1 sequence: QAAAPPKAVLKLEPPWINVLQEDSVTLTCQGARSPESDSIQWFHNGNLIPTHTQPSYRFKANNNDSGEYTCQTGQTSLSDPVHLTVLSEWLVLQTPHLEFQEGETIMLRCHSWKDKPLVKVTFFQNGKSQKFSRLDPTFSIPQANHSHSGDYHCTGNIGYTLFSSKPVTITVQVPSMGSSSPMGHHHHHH

T2: human FcγRIIB α subunit extracellular domain-His6-GST fusion (human, UniProt P31994 43-217)
T2 construct: extracellular domain; also called CD32; not shown: glutathione S transferase (GST)
T2 sequence: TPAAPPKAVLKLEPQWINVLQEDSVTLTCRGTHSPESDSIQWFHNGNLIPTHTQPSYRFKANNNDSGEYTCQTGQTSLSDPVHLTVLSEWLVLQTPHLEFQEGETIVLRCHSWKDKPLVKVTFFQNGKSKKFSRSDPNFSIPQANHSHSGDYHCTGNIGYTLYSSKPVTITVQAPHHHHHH

T3: human FcγRIIB α subunit extracellular domain-6His-GST fusion (human, UniProt P31994 43-217)
T3 construct: not shown: glutathione S-transferase (GST)
T3 sequence: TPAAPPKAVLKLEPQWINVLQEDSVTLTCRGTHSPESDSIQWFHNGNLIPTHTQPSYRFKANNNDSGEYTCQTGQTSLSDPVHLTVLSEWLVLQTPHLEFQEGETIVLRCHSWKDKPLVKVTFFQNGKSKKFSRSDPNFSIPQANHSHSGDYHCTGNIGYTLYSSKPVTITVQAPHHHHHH

T4: human FcγRIIA-R131 α subunit extracellular domain-6His-GST fusion (human, UniProt P12318 34-217)
T4 construct: also called FcγRIIA-Arg131; not shown: glutathione S-transferase (GST)
T4 sequence: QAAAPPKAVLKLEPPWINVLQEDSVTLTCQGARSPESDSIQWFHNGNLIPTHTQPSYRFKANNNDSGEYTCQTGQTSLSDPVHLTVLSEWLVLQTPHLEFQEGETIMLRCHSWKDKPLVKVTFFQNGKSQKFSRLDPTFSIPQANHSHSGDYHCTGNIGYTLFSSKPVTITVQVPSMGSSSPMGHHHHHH


How the values were obtained:
[1] = biological target: T1, human FcγRIIA-Arg131 α subunit …; assay: hexamer ELISA
[2] = biological target: T5, human FcγRIIIA-Phe158 α subunit extracellular domain-His6-GST fusion (human, UniProt P08637 17-208); assay: hexamer ELISA
T5 construct: extracellular domain; also called FcγRIIIA-F158; CD16; not shown: glutathione S transferase (GST)

[3] = biological target: T2, human FcγRIIB α subunit extracellular …; assay: hexamer ELISA
human FcRn, biotinylated = biological target: T6, human FcRn, biotinylated (human, UniProt P55899 24-297; P61769 21-119, biotinylated (biotin-X-NHS)); assay: ELISA, biotin-FcRn on streptavidin, pH 6.0
T6 construct: Captured on streptavidin plates; IgG added at pH 6.0; also called neonatal Fc receptor
Experimental: (§1) FcRn Binding ELISA: For measuring FcRn binding activity of IgG variants, ELISA plates were coated with 2 µg/ml streptavidin (Zymed, South San Francisco) in 50 mM carbonate buffer, pH 9.6, at 4° C. overnight and blocked with PBS-0.5% BSA, pH 7.2 at room temperature for one hour. Biotinylated FcRn (prepared using biotin-X-NHS from Research Organics, Cleveland, Ohio and used at 1–2 µg/ml) in PBS-0.5% BSA, 0.05% polysorbate 20, pH 7.2, was added to the plate and incubated for one hour. Two fold serial dilutions of IgG standard (1.6–100 ng/ml) or variants in PBS-0.5% BSA, 0.05% polysorbate 20, pH 6.0, were added to the plate and incubated for two hours. Bound IgG was detected using peroxidase labeled goat F(ab')_2 anti-human IgG F(ab')_2 in the above pH 6.0 buffer (Jackson ImmunoResearch, West Grove, Pa.) followed by 3,3',5,5'-tetramethyl benzidine (Kirgaard & Perry Laboratories) as the substrate. Plates were washed between steps with PBS-0.05% TWEEN 20® at either pH 7.2 or 6.0. Absorbance was read at 450 nm on a Vmax plate reader (Molecular Devices, Menlo Park, Calif.). Titration curves were fit with a four-parameter nonlinear regression curve-fitting program (KaleidaGraph, Synergy software, Reading, Pa.). Concentrations of IgG variants corresponding to the mid-point absorbance of the titration curve of the standard were calculated and then divided by the concentration of the standard corresponding to the mid-point absorbance of the standard titration curve.

[4] = biological target: T7, human FcγRIIIA-F158 α subunit extracellular domain-6His-GST fusion (human, UniProt P08637 17-208); assay: ELISA, IgG:IgE hexamers on receptor-GST
T7 construct: also called FcγRIIIA-Phe158; not shown: glutathione S-transferase (GST)

[5] = biological target: T3, human FcγRIIB α subunit extracellular …; assay: ELISA, IgG:IgE hexamers on receptor-GST
[6] = biological target: T4, human FcγRIIA-R131 α subunit …; assay: ELISA, IgG:IgE hexamers on receptor-GST
[7] = biological target: T8, human FcγRIA α subunit extracellular domain-His6-GST fusion (human, UniProt P12314 16-292); assay: FcγRI ELISA and THP-1 cells, averaged
T8 construct: extracellular domain; also called GST-FcγRIA; CD64; not shown: glutathione S transferase (GST)

[8] = biological target: T1, human FcγRIIA-Arg131 α subunit …; assay: hexamer ELISA; remark: listed apart in the source
[9] = biological target: T5, human FcγRIIIA-Phe158 α subunit …; assay: hexamer ELISA; remark: listed apart in the source
[10] = biological target: T2, human FcγRIIB α subunit extracellular …; assay: hexamer ELISA; remark: listed apart in the source
[11] = biological target: T1, human FcγRIIA-Arg131 α subunit …; assay: immune complex ELISA, E27 background
[12] = biological target: T5, human FcγRIIIA-Phe158 α subunit …; assay: immune complex ELISA, E27 background
[13] = biological target: T2, human FcγRIIB α subunit extracellular …; assay: immune complex ELISA, E27 background
[14] = biological target: T8, human FcγRIA α subunit extracellular …; assay: FcγRI ELISA, E27 background
Experimental: Prior to assay, plates are washed 3× with 250 μl of wash buffer (PBS pH 7.4 containing 0.5% TWEEN 20™) and blocked with 250 μl of assay buffer (50 mM Tris buffered saline, 0.05% TWEEN 20™, 0.5% RIA grade bovine albumin (Sigma A7888), and 2 mM EDTA pH 7.4). Samples diluted to 10 μg/ml in 1 ml of assay buffer are added to FcγRI α subunit coated plates and incubated for 120 minutes at 25° C. on an orbital shaker. […] Plates are washed 5× with wash buffer to remove unbound HRP goat anti-human IgG and bound anti-IgG is detected by adding 100 μl of substrate solution (0.4 mg/ml o-phenylenedaimine dihydrochloride, Sigma P6912, 6 mM H_2O_2 in PBS) and incubating for 8 min at 25° C. Enzymatic reaction is stopped by the addition of 100 μl 4.5N H_2SO_4 and colorimetric product is measured at 490 nm on a 96 well plate densitometer (Molecular Devices). Binding of variant is expressed as a percent of the wild type molecule.

[15] = biological target: T9, human neonatal Fc receptor (FcRn), biotinylated (human, UniProt P55899 24-297; P61769 21-119, biotinylated (biotin-X-NHS)); assay: FcRn ELISA, pH 6.0;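 on ratio to native IgG1: Streptavidin-captured FcRn plates, IgG variants titrated 2 h at pH 6.0, peroxidase anti-human IgG read at 450 nm, variant over standard concentration at the standard curve mid-point absorbance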
T9 construct: captured on streptavidin plates

[16] = biological target: T9, human neonatal Fc receptor (FcRn), …; assay: FcRn ELISA, pH 6.0; remark: listed apart in the source
Experimental: as §1

T8 sequence (P12314 other isoform, or with tags, fused parts or gaps): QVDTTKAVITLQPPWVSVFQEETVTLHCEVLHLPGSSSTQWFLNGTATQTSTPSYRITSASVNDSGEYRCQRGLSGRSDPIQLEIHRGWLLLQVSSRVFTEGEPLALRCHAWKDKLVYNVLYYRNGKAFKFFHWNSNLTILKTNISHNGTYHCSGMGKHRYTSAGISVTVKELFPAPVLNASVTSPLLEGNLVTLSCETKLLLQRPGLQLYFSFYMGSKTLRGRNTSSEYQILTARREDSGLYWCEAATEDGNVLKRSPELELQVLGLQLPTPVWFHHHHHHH
T5 sequence (P08637 other isoform, or with tags, fused parts or gaps): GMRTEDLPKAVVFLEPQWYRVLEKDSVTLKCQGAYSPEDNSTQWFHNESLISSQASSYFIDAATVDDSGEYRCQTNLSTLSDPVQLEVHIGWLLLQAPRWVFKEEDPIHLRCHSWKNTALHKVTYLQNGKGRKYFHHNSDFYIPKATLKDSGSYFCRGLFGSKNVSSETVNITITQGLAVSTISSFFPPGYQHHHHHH
T7 sequence (P08637 other isoform, or with tags, fused parts or gaps, form in doubt): as the sequence (P08637 other isoform, or with tags, fused parts or gaps) above

Row | binding result [1] | binding result [2] | binding result [3] | ratio to native IgG1 (human FcRn, biotinylated) | ratio to native IgG1 [4] | ratio to native IgG1 [5] | ratio to native IgG1 [6] | Binder | also measured
1 | no binding | no binding | no binding | – | – | – | – | anti-IgE E27 IgG1 Asp265Glu (antibody) heavy: not shown light: DIQLTQSPSSLSASVGDRVTITCRASKPVDGEGDSYLNWYQQKPGKAPKLLIYAASYLESGVPSRFSGSGSGTDFTLTISSLQPEDFATYYCQQSHEDPYTFGQGTKVEIKRTVAAPSVFIFPPSDEQLKSGTASVVCLLNNFYPREAKVQWKVDNALQSGNSQESVTEQDSKDSTYSLSSTLTLSKADYEKHKVYACEVTHQGLSSPVTKSFNRGEC | –
2 | no binding | no binding | no binding | – | – | – | – | anti-IgE E27 IgG1 Ser298Asn (antibody) heavy: not shown light: DIQLTQSPSSLSASVGDRVTITCRASKPVDGEGDSYLNWYQQKPGKAPKLLIYAASYLESGVPSRFSGSGSGTDFTLTISSLQPEDFATYYCQQSHEDPYTFGQGTKVEIKRTVAAPSVFIFPPSDEQLKSGTASVVCLLNNFYPREAKVQWKVDNALQSGNSQESVTEQDSKDSTYSLSSTLTLSKADYEKHKVYACEVTHQGLSSPVTKSFNRGEC | –
3 | – | – | – | 0.9 | 0.92 | 1.04 | 0.98 | E27 IgG1 variant E380(405)A/L309(328)A (antibody, also called IG2 271) heavy: not shown light: DIQLTQSPSSLSASVGDRVTITCRASKPVDGEGDSYLNWYQQKPGKAPKLLIYAASYLESGVPSRFSGSGSGTDFTLTISSLQPEDFATYYCQQSHEDPYTFGQGTKVEIKRTVAAPSVFIFPPSDEQLKSGTASVVCLLNNFYPREAKVQWKVDNALQSGNSQESVTEQDSKDSTYSLSSTLTLSKADYEKHKVYACEVTHQGLSSPVTKSFNRGEC | –
4 | – | – | – | – | – | – | – | anti-IgE E27 IgG1 Pro331Ala (antibody, also called P331A) heavy: not shown light: DIQLTQSPSSLSASVGDRVTITCRASKPVDGEGDSYLNWYQQKPGKAPKLLIYAASYLESGVPSRFSGSGSGTDFTLTISSLQPEDFATYYCQQSHEDPYTFGQGTKVEIKRTVAAPSVFIFPPSDEQLKSGTASVVCLLNNFYPREAKVQWKVDNALQSGNSQESVTEQDSKDSTYSLSSTLTLSKADYEKHKVYACEVTHQGLSSPVTKSFNRGEC | ratio to native IgG1 [7]: 1.01 ratio; ratio to native IgG1 [8]: 1.29 ratio; ratio to native IgG1 [9]: 1.08 ratio; ratio to native IgG1 [10]: 1.34 ratio; percentage of the wild type [11]: 86%; percentage of the wild type [12]: 73%; percentage of the wild type [13]: 58%; percentage of the wild type [14]: 74%; ratio to native IgG1 [15]: 0.85 ratio
5 | – | – | – | – | – | – | – | anti-IgE E27 IgG1 Glu380Ala/Asn434Ala (antibody) heavy: not shown light: DIQLTQSPSSLSASVGDRVTITCRASKPVDGEGDSYLNWYQQKPGKAPKLLIYAASYLESGVPSRFSGSGSGTDFTLTISSLQPEDFATYYCQQSHEDPYTFGQGTKVEIKRTVAAPSVFIFPPSDEQLKSGTASVVCLLNNFYPREAKVQWKVDNALQSGNSQESVTEQDSKDSTYSLSSTLTLSKADYEKHKVYACEVTHQGLSSPVTKSFNRGEC | fold better binding than native IgG1 [16]: > 8 fold
6 | – | – | – | 2.9 | 0.88 | 0.96 | 0.94 | E27 IgG1 variant H434(465)A/K288(305)A (antibody, also called IG2 272; Lys288Ala/Asn434Ala) heavy: not shown light: DIQLTQSPSSLSASVGDRVTITCRASKPVDGEGDSYLNWYQQKPGKAPKLLIYAASYLESGVPSRFSGSGSGTDFTLTISSLQPEDFATYYCQQSHEDPYTFGQGTKVEIKRTVAAPSVFIFPPSDEQLKSGTASVVCLLNNFYPREAKVQWKVDNALQSGNSQESVTEQDSKDSTYSLSSTLTLSKADYEKHKVYACEVTHQGLSSPVTKSFNRGEC | –
7 | – | – | – | 8 | 1.02 | 1.05 | 1.02 | E27 IgG1 variant E380(405)A/N434(465)A (antibody, also called IG2 269) heavy: not shown light: DIQLTQSPSSLSASVGDRVTITCRASKPVDGEGDSYLNWYQQKPGKAPKLLIYAASYLESGVPSRFSGSGSGTDFTLTISSLQPEDFATYYCQQSHEDPYTFGQGTKVEIKRTVAAPSVFIFPPSDEQLKSGTASVVCLLNNFYPREAKVQWKVDNALQSGNSQESVTEQDSKDSTYSLSSTLTLSKADYEKHKVYACEVTHQGLSSPVTKSFNRGEC | –
8 | no binding | no binding | no binding | – | – | – | – | anti-IgE E27 IgG1 Asp270Asn (antibody) heavy: not shown light: DIQLTQSPSSLSASVGDRVTITCRASKPVDGEGDSYLNWYQQKPGKAPKLLIYAASYLESGVPSRFSGSGSGTDFTLTISSLQPEDFATYYCQQSHEDPYTFGQGTKVEIKRTVAAPSVFIFPPSDEQLKSGTASVVCLLNNFYPREAKVQWKVDNALQSGNSQESVTEQDSKDSTYSLSSTLTLSKADYEKHKVYACEVTHQGLSSPVTKSFNRGEC | –
9 | – | – | – | – | – | – | – | anti-IgE E27 IgG1 Lys322Ala (antibody, also called K322A) heavy: not shown light: DIQLTQSPSSLSASVGDRVTITCRASKPVDGEGDSYLNWYQQKPGKAPKLLIYAASYLESGVPSRFSGSGSGTDFTLTISSLQPEDFATYYCQQSHEDPYTFGQGTKVEIKRTVAAPSVFIFPPSDEQLKSGTASVVCLLNNFYPREAKVQWKVDNALQSGNSQESVTEQDSKDSTYSLSSTLTLSKADYEKHKVYACEVTHQGLSSPVTKSFNRGEC | ratio to native IgG1 [7]: 0.94 ratio; ratio to native IgG1 [8]: 1.17 ratio; ratio to native IgG1 [9]: 0.62 ratio; ratio to native IgG1 [10]: 1.28 ratio; percentage of the wild type [11]: 109%; percentage of the wild type [12]: 90%; percentage of the wild type [13]: 101%; percentage of the wild type [14]: 90%; ratio to native IgG1 [15]: 0.98 ratio
10 | – | – | – | 11.8 | 0.96 | 0.99 | 0.99 | E27 IgG1 variant E380(405)A/N434(465)A/T307(326)A (antibody, also called IG2 270) heavy: EVQLVESGGGLVQPGGSLRLSCAVSGYSITSGYSWNWIRQAPGKGLEWVASIKYSGETKYNPSVKGRITISRDDSKNTFYLQMNSLRAEDTAVYYCARGSHYFGHWHFAVWGQGTLVTVSSASTKGPSVFPLAPSSKSTSGGTAALGCLVKDYFPEPVTVSWNSGALTSGVHTFPAVLQSSGLYSLSSVVTVPSSSLGTQTYICNVNHKPSNTKVDKKVEPKSCDKTHTCPPCPAPELLGGPSVFLFPPKPKDTLMISRTPEVTCVVVDVSHEDPEVKFNWYVDGVEVHNAKTKPREEQYNSTYRVVSVLAVLHQDWLNGKEYKCKVSNKALPAPIEKTISKAKGQPREPQVYTLPPSREEMTKNQVSLTCLVKGFYPSDIAVAWESNGQPENNYKTTPPVLDSDGSFFLYSKLTVDKSRWQQGNVFSCSVMHEALHAHYTQKSLSLSPGK light: DIQLTQSPSSLSASVGDRVTITCRASKPVDGEGDSYLNWYQQKPGKAPKLLIYAASYLESGVPSRFSGSGSGTDFTLTISSLQPEDFATYYCQQSHEDPYTFGQGTKVEIKRTVAAPSVFIFPPSDEQLKSGTASVVCLLNNFYPREAKVQWKVDNALQSGNSQESVTEQDSKDSTYSLSSTLTLSKADYEKHKVYACEVTHQGLSSPVTKSFNRGEC | –

From US7183387 (Genentech, dated 2007)
